In patent US20260250418A1 (BIOCYTOGEN PHARMACEUTICALS BEIJING, published 2026):
Residue numbers refer to the chain shown, from its start.

T1: human HER4 (hHER4, ACRO Biosystems Inc., Cat #: ER4-H5221), recombinant His-tagged (human, UniProt Q15303 26-649)
T1 construct: Bought protein; not shown: His tag
T1 sequence (looked up): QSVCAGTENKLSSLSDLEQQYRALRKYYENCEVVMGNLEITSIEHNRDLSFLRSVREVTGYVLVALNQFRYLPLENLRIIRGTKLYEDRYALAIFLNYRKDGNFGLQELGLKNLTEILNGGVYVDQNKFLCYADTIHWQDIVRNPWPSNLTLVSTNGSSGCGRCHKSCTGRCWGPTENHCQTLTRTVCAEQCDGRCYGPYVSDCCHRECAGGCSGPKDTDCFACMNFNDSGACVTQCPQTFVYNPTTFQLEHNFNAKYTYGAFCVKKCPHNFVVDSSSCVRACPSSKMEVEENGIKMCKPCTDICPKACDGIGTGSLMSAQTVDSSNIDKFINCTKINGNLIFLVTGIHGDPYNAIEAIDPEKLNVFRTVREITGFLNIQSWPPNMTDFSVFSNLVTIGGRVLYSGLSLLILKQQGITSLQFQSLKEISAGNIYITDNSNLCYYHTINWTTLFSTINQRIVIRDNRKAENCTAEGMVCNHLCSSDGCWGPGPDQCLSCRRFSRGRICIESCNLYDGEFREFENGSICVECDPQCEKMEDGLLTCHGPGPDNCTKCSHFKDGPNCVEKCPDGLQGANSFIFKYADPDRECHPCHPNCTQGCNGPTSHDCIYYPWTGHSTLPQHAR

T2: His-tagged dog HER3 protein (dHER3, SEQ ID NO: 45) (dog, UniProt P21860 20-642 (human entry))
T2 construct: not shown: His tag
T2 chain: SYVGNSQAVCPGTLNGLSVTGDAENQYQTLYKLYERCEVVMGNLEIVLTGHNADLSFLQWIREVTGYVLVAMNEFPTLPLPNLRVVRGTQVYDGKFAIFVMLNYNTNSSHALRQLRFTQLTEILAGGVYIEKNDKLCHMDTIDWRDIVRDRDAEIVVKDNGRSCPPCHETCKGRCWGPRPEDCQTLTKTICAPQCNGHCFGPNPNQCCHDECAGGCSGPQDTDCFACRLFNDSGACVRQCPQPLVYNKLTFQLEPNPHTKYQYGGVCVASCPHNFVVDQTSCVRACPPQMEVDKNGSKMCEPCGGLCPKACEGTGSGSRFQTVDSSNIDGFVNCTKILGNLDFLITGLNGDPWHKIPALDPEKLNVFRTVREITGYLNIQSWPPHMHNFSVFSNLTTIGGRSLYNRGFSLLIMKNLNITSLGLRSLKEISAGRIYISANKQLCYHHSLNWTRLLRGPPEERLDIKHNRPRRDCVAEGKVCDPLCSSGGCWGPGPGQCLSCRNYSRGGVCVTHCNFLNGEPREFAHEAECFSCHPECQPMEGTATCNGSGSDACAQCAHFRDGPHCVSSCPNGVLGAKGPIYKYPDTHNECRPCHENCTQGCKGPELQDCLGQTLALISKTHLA

B1: anti-HER3 antibody 3G6 (antibody, V domains shown)
VH: QVQLVQSGPVLVKPTETLTLTCTVSGFSLSNIRMGVSWIRQPPGKALEWLAHIFSNDDKSYSTSLKSRLTISKDTSKSQVVLTMTNVDPVDTATYYCTRMRYSGGPFDYWGQGTLVTVSS
VL: not shown
notes: common light chain
B2: anti-HER3 antibody 3E1 (antibody, V domains shown)
VH: B1 VH with Q1E, V12A, T63P, S67N, N86T, V87M, V90M, R101K
VL: not shown
notes: common light chain
B3: anti-HER3 antibody 1B2 (antibody, V domains shown)
VH: B1 VH with G26T, I32A, T63P, S78T, V87M, T98S, T114S
VL: not shown
notes: common light chain
B4: anti-HER3 antibody 1C5 (antibody, V domains shown)
VH: QVQLVESGGGVVQPGKSLRLSCAASGFTFSRSGMHWVRQAPGKGLEWVALISFDGSNKYYADSVKGRFTISRDNSKNTLNLQMNSLRAEDTAVYYCAKGGFGVVIYDAFDIWGHGTMVTVSS
VL: not shown
notes: common light chain

What follows are binders tested against T3, human EGFR (hEGFR, ACRO Biosystems Inc., Cat #: EGR-H5222), recombinant His-tagged (human, UniProt P00533 25-645) (assay: SPR, Ab captured on Protein A).
T3 construct: Bought protein; not shown: His tag
Protocol: (§1) The cross binding activities of anti-HER3 antibodies to HER family proteins were determined by surface plasmon resonance (SPR) using Biacore (Biacore, INC, Piscataway N.J.) 8K biosensor equipped with pre-immobilized Protein A sensor chips.
(§2) Purified anti-HER3 antibodies were diluted to 2 μg/mL and then injected into the Biacore 8K biosensor at 10 μL/min for about 50 seconds to achieve a desired protein density (e.g., about 200 response units (RU)). […] The association phase lasted for 180 s and the dissociation phase lasted 400 s followed by a regeneration step with Glycine (pH 2.0, 30 μL/min for 30 seconds). For isotype control (ISO), an antibody targeting an irrelevant target protein was used.

Row | Binder | binding result
1 | B1 | no binding (tested: 400 nM)
2 | B2 | no binding (tested: 400 nM)
3 | B3 | no binding (tested: 400 nM)
4 | B4 | no binding (tested: 400 nM)

The binders below were run against T4, human HER2 (hHER2, ACRO Biosystems Inc., Cat #: HE2-H5225), recombinant His-tagged (human, UniProt P04626 23-652) (assay: SPR, Ab captured on Protein A).
T4 construct: Bought protein; not shown: His tag
Protocol: as §1, §2

Row | Binder | binding result
5 | B1 | no binding (tested: 400 nM)
6 | B2 | no binding (tested: 400 nM)
7 | B3 | no binding (tested: 400 nM)
8 | B4 | no binding (tested: 400 nM)

What follows are binders tested against T1, human HER4 (hHER4, ACRO Biosystems …) (assay: SPR, Ab captured on Protein A).
Protocol: as §1, §2

Row | Binder | binding result
9 | B1 | no binding (tested: 400 nM)
10 | B2 | no binding (tested: 400 nM)
11 | B3 | no binding (tested: 400 nM)
12 | B4 | no binding (tested: 400 nM)

The binders below were run against T5, His-tagged human HER3 protein (hHER3, ACRO Biosystems Inc., Cat #: ER3-H5223) (human, UniProt P21860 20-643) (assay: SPR, Ab captured on Protein A).
T5 construct: Bought protein; also called hHER3-His; not shown: His tag
Protocol: (§3) Purified anti-HER3 antibodies was captured on the Protein A chip (Series S Sensor Chip Protein A) for the detection. […] For ISO control, an antibody targeting an irrelevant target protein was used. The flow rate was 30 μL/min, the binding and dissociation time were set to 180 s and 400 s, respectively. The chip was regenerated after the last injection of each titration with a glycine solution (pH 2.0) at 30 μL/min for 30 seconds.
(§4) As a person of ordinary skill in the art would understand, the same method with appropriate adjustments for parameters (e.g., antibody concentration) was performed for each tested antibody.

Row | Binder | Kd [µM] | koff [s⁻¹] | kon [M⁻¹ s⁻¹]
13 | B1 | 0.0348 | 0.0091 | 261000
14 | B2 | 0.0115 | 0.00319 | 277000
15 | B3 | 0.0133 | 0.00239 | 179000
16 | B4 | 0.03 | 0.000637 | 21200

The binders below were run against T6, His-tagged monkey HER3 protein (fasHER3, Sino Biological, Inc., Cat #: 90043-K08H) (monkey) (assay: SPR, Ab captured on Protein A).
T6 construct: Bought protein
Protocol: as §3, §4

Row | Binder | Kd [µM] | koff [s⁻¹] | kon [M⁻¹ s⁻¹]
17 | B1 | 0.0509 | 0.00834 | 164000
18 | B2 | 0.0191 | 0.00289 | 152000
19 | B3 | 0.0223 | 0.00224 | 100000
20 | B4 | 0.0317 | 0.000582 | 18400

Biological target: T2, His-tagged dog HER3 protein (dHER3, SEQ …)
Assay: SPR, Ab captured on Protein A
Protocol: as §3, §4

Row | Binder | Kd [µM] | koff [s⁻¹] | kon [M⁻¹ s⁻¹]
21 | B1 | 0.146 | 0.00809 | 55500
22 | B2 | 0.0504 | 0.00288 | 57100
23 | B3 | 0.0618 | 0.00223 | 36100
24 | B4 | 0.0334 | 0.000418 | 12500

Each binder was assayed against T7, mouse HER3 on CHO-mHER3 cells (mouse, UniProt Q61526 20-641) (assay: flow cytometry, transfected CHO cells).
T7 construct: CHO-S cells transfected with mHER3
T7 sequence (Q61526 20-641): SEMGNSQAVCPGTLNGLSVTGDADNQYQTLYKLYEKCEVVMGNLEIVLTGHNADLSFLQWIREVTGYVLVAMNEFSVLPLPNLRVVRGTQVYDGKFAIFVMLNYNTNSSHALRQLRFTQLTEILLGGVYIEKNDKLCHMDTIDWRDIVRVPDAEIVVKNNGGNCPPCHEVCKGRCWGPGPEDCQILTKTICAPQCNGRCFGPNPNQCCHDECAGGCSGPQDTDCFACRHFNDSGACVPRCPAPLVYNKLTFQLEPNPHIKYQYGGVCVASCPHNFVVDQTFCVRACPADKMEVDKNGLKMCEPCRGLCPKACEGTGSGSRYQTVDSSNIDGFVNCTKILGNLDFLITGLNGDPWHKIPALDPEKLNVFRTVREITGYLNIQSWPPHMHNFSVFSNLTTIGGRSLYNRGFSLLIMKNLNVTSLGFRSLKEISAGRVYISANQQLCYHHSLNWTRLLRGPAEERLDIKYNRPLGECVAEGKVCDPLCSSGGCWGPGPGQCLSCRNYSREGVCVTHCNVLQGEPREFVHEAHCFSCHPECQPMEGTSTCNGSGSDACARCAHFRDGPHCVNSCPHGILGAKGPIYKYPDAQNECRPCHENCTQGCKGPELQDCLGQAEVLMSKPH
Protocol: CHO-hHER3 cells, CHO-mHER3 cells, CHO-fasHER3 cells or CHO-dHER3 cells were transferred to a 96-well plate at a density of 5×10⁴ cells/well respectively. The anti-HER3 antibodies were added to the 96-well plate, and incubated at 4° C. for 30 min.

Row | Binder | Percentage of Positive Cells [%] | binding result
25 | B1 | 15.2 | –
26 | B2 | 23 | –
27 | B3 | 22.4 | –
28 | B4 | 3.4 | no binding
